Article PMC11960969, “Mdga2 deficiency leads to an aberrant activation of BDNF/TrkB signaling that underlies autism-relevant synaptic and behavioral changes in mice” (PLOS Biology, 2025)

B1: sp¦Q3UH99¦SHSA6_MOUSE (protein, UniProt Q3UH99 31-525, looked up)
Protein shisa-6: ARGRSGNRTLNAGAVGGRRAGGALARGGRELNSTARASGVPEAGSRRGQSAAAAAAAAAAASATVTYETCWGYYDVSGQYDKEFECNNSESGYLYCCGTCYYRFCCKKRHEKLDQRQCTNYQSPVWVQTPSTKVVSPGPENKYDPEKDKTNFTVYITCGVIAFVIVAGVFAKVSYDKAHRPPREMNIHRALADILRQQGPIPIAHCERETISAIDTSPKENTPVRSTSKNHYTPVRTAKQTPGDRQYNHPILSSATQTPTHEKPRMNNILTSATEPYDLSFSRSYQNLAHLPPSYESAVKTNPSKYSSLKRLTDKEADEYYMRRRHLPDLAARGTLPLNVIQMSQQKPLPRERPRRPIRAMSQDRVLSPRRGLPDEFGMPYDRILSDEQLLSTERLHSQDPLLSPERTAFPEQSLSRAISHTDVFVSTPVLDRYRMTKMHSHPSASNNSYATLGQSQTAAKRHAFASRRHNTVEQLHYIPGHHTCYTASKTEVTV
B2: sp¦P97333¦NRP1_MOUSE (protein, UniProt P97333 22-923, looked up)
Neuropilin-1: FRSDKCGGTIKIENPGYLTSPGYPHSYHPSEKCEWLIQAPEPYQRIMINFNPHFDLEDRDCKYDYVEVIDGENEGGRLWGKFCGKIAPSPVVSSGPFLFIKFVSDYETHGAGFSIRYEIFKRGPECSQNYTAPTGVIKSPGFPEKYPNSLECTYIIFAPKMSEIILEFESFDLEQDSNPPGGMFCRYDRLEIWDGFPEVGPHIGRYCGQKTPGRIRSSSGVLSMVFYTDSAIAKEGFSANYSVLQSSISEDFKCMEALGMESGEIHSDQITASSQYGTNWSVERSRLNYPENGWTPGEDSYKEWIQVDLGLLRFVTAVGTQGAISKETKKKYYVKTYRVDISSNGEDWISLKEGNKAIIFQGNTNPTDVVLGVFSKPLITRFVRIKPVSWETGISMRFEVYGCKITDYPCSGMLGMVSGLISDSQITASNQADRNWMPENIRLVTSRTGWALPPSPHPYTNEWLQVDLGDEKIVRGVIIQGGKHRENKVFMRKFKIAYSNNGSDWKTIMDDSKRKAKSFEGNNNYDTPELRTFSPLSTRFIRIYPERATHSGLGLRMELLGCEVEAPTAGPTTPNGNPVDECDDDQANCHSGTGDDFQLTGGTTVLATEKPTIIDSTIQSEFPTYGFNCEFGWGSHKTFCHWEHDSHAQLRWSVLTSKTGPIQDHTGDGNFIYSQADENQKGKVARLVSPVVYSQSSAHCMTFWYHMSGSHVGTLRVKLRYQKPEEYDQLVWMVVGHQGDHWKEGRVLLHKSLKLYQVIFEGEIGKGNLGGIAVDDISINNHISQEDCAKPTDLDKKNTEIKIDETGSTPGYEGEGEGDKNISRKPGNVLKTLDPILITIIAMSALGVLLGAVCGVVLYCACWHNGMSERNLSALENYNFELVDGVKLKKDKLNPQSNYSEA
B3: sp¦P60755¦MDGA2_MOUSE (protein, UniProt P60755 26-924, looked up)
MAM domain-containing …: PPTVRIVHSGLACNIEEERYSERVYTIREGETLELTCLVTGHPRPQIRWTKTAGSASDRFQDSSVFNETLRITNIQRHQGGRYYCKAENGLGSPAIKSIRVDVYYLDDPVVTVHQSIGEAKEQFYYERTVFLRCVANSNPPVRYSWRRGQEVLLQGSDKGVEIYEPFFTQGETKILKLKNLRPQDYANYSCIASVRNVCNIPDKMVSFRLSNKTASPSIKLLVDDPIVVNPGEAITLVCVTTGGEPTPSLTWVRSFGTLPEKIVLNGGTLTIPAITSDDAGTYSCIANNNVGNPAKKSTNIIVRALKKGRFWITPDPYHKDDNIQIGREVKISCQVEAVPSEELTFSWFKNGRPLRSSERMVITQTDPDVSPGTTNLDIIDLKFTDFGTYTCVASLKGGGISDISIDVNISSSTVPPNLTVPQEKSPLVTREGDTIELQCQVTGKPKPIILWSRADKEVAMPDGTMQMESYDGTLRIVNVSREMSGMYRCQTSQYNGFNVKPREALVQLIVQYPPAVEPAFLEIRQGQDRSVTMSCRVLRAYPIRVLTYEWRLGNKLLRTGQFDSQEYTEYPLKSLSNENYGVYNCSIINEAGAGRCSFLVTGKAYAPEFYYDTYNPVWQNRHRVYSYSLQWTQMNPDAVDRIVAYRLGIRQAGQQRWWEQEIKINGNIQKGELITYNLTELIKPEAYEVRLTPLTKFGEGDSTIRVIKYTGEFHCGFEDGNICLFTQDDTDNFDWTKQSTATRNTKYTPNTGPSADRSGSKEGFYMYIETSRPRLEGEKARLLSPVFSIAPKNPYGPTNSAYCFSFFYHMYGQHIGVLNVYLRLKGQTTIENPLWSSSGNKGQRWNEAHVNIYPITSFQLIFEGIRGPGIEGDIAIDDVSIAEGECAKQDLPTKNSVD

What follows are molecules tested on hippocampal proteins (assay: DIA quantification proteomics, hippocampus of Mdga2+/- vs WT mice). Details: Mdga2+/- vs WT mouse hippocampus (HET-HIP-VS-WT-HIP); S3 Table, downregulated DEPs; SE, pvalue and adj_pvalue in own columns c3-c5.
Set-up: species or system mouse
Procedure, shortened: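 Hippocampi from 1.5–2-month-old male Mdga2+/− mice and WT littermates; 100 μg protein trypsin-digested, peptides high-pH fractionated. DDA-built spectral library, DIA by nano-LC–MS/MS with Spectronaut and mProphet QC. DEPs called at fold change >1.1 and p <0.05.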

Molecule | log2FC
B1 | -2.769
B2 | -3.13
B3 | -3.064

Same assay, conditions: regulation class of the protein, HET-HIP-VS-WT-HIP; S3 Table, downregulated DEPs

Molecule | Class
B1 | Down
B2 | Down
B3 | Down
